Measurements published in publication PMC10300128.

Molecular target: human angiotensin-converting enzyme 2 (residues 19–615), mouse IgG2a Fc fusion (human) (UniProt Q9BYF1)
Experiment: BLI

Sequence of UniProt Q9BYF1 (Q9BYF1 19-615): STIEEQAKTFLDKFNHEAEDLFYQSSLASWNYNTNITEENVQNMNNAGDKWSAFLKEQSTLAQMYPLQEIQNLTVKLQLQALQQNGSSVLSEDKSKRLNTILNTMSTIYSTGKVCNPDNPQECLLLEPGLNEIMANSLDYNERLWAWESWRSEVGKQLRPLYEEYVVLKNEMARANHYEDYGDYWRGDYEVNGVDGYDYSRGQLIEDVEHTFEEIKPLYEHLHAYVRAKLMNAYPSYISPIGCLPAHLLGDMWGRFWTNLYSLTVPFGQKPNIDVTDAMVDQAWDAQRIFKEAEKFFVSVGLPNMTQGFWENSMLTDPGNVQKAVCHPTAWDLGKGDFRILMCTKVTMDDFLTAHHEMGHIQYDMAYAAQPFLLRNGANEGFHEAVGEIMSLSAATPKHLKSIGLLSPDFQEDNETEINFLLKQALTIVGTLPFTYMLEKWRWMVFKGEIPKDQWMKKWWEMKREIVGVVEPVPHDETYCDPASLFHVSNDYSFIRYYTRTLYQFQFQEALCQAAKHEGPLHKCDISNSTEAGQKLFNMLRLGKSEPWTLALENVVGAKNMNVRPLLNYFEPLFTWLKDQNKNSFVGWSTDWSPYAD

## RhGB07 spike trimer (natural protein)
  Kd: 253 nM
